Results published in US20130217613A1 (MARQUETTE UNIVERSITY, published 2013).

Legend:
[1] = molecular target: T1, His-tagged human Dpy-30 protein (full length) (human, UniProt Q9C005 1-99); experiment: Ni-NTA pulldown of co-expressed proteins, GST western blot
T1 construct: range 1-99; also called His-Dpy-30; HDpy-30; not shown: His tag and vector-encoded residues of pET-28a

[2] = molecular target: T2, His-tagged human Dpy-30 domain only (Dpy-30 45-99) (human, UniProt Q9C005 45-99); experiment: as above
T2 construct: range 45-99; also called the Dpy-30 domain; Dpy-30 domain alone; not shown: His tag and vector-encoded residues of pET-28a
T2 sequence (Q9C005 45-99): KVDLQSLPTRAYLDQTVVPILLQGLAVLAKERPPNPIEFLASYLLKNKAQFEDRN

T1 sequence (Q9C005 whole entry): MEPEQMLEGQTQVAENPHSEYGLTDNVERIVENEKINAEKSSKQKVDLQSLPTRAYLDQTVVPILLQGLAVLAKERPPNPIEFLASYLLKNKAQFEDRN

- binding result [1]: no binding
- binding result [2]: no binding
B1: GST-tagged RSP3 280-316 with V300P mutation (other)
chain: PWLKEQAIGYLARGVVARRVPDKLVEDAAAALAANRS
notes: also called pRSP3V300P product; not shown: N-terminal GST tag (from pGEX-2T) and its junction
